How the values were obtained:
Assay in all cases: purified protein
Type in all cases: biochemical, Sulfolobus acidocaldarius
purified protein [1] = substrate: CC(=O)[C@](C)(O)C(=O)O; conditions: 0.22 mM NADPH, 10 mM MgSO4, 100 mM phosphate pH 8.0, 25 °C, racemic 2-acetolactate used, concentration counted as the S enantiomer
purified protein [2] = substrate: NC(=O)C1=CN([C@@H]2O[C@H](COP(=O)(O)OP(=O)(O)OC[C@H]3O[C@@H](n4cnc5c(N)ncnc54)[C@H](O)[C@@H]3O)[C@@H](O)[C@H]2O)C=CC1; conditions: 5 mM 2S-AL (saturating), 10 mM MgSO4, 100 mM phosphate pH 8.0, 25 °C, varied: cofactor
purified protein [3] = substrate: NC(=O)C1=CN([C@@H]2O[C@H](COP(=O)(O)OP(=O)(O)OC[C@H]3O[C@@H](n4cnc5c(N)ncnc54)[C@H](OP(=O)(O)O)[C@@H]3O)[C@@H](O)[C@H]2O)C=CC1; conditions: 5 mM 2S-AL (saturating), 10 mM MgSO4, 100 mM phosphate pH 8.0, 25 °C, varied: cofactor

B1: Sac-KARI (Sulfolobus acidocaldarius DSM 639) (protein)
chain: MAKIYTDKDVSLDVIKEKRVAVLGYGSQGRAWALNLRDSGIKVSVGLEREGNSWKQAENDGFKPLRTEEAVRNSDIIIFLLPDMIQRTVYLERVKPYLKEGMDLVFAHGFNIHYRLIEPPSNVDVYMIAPKAPGPIVREYFAKGGGVPALVATYQDHSGKALQKALAVAKAIGATRAGVIETTFKEETETDLFGEQVDLVGGVMQLMRYAFQTLVEAGYQPEVAYFETINEMKLIVDLVYEKGFSGMLTAVSDTAKYGGMTVGKMVIDESVKERMKKALDNIRSGKFAEKWVEEYGKGANTIKEGMKEVDNSTEEKVGRSLRDIILRGKPKS
notes: pET-21a NdeI/XhoI, His-tag retained; E. coli BL21(DE3); heat step, Ni-NTA, gel filtration; homodimer ~70 kDa (theoretical ~74 kDa); beta2-alphaB loop LEREGNS; R49, S53, D191, E195, E227, E231
Purified protein [1]
  Km: 140 ± 6 µM
  kcat: 0.068 ± 0.001 s⁻¹
  kcat/Km: 490 ± 20 M⁻¹ s⁻¹
Purified protein [2]
  Km: 6.0 ± 0.8 µM
  kcat: 0.056 ± 0.001 s⁻¹
  kcat/Km: 9500 ± 1300 M⁻¹ s⁻¹
Purified protein [3]
  Km: 0.4 ± 0.2 µM
  kcat: 0.064 ± 0.001 s⁻¹
  kcat/Km: 186000 ± 80500 M⁻¹ s⁻¹

Reference: PMC5940873, “NADH/NADPH bi-cofactor-utilizing and thermoactive ketol-acid reductoisomerase from Sulfolobus acidocaldarius” (Scientific Reports, 2018)
